In PMC3581539, “Biochemical and Mutational Analysis of a Novel Nicotinamidase from Oceanobacillus iheyensis HTE831” (PLoS ONE, 2013):
Each block holds one molecule with its values, some of them ahead of it.

Tests used:
[1] = target: T1, nicotinamidase (OiNIC) (Oceanobacillus iheyensis, UniProt Q8ESQ6)
T1 construct: gene OB0565
T1 sequence (Q8ESQ6 1-183): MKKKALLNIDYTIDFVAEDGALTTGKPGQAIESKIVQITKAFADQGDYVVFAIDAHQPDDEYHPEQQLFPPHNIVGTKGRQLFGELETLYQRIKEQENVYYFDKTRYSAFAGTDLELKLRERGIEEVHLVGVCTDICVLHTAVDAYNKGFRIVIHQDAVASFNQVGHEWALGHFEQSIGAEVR

[2] = test system: NC(=O)c1cccnc1; test: steady-state kinetics (Km), GDH-coupled spectrophotometric assay; type: biochemical, Oceanobacillus iheyensis; conditions: Zn2+ active site
[3] = test system: NC(=O)c1cnccn1; test: as above; type: biochemical, Oceanobacillus iheyensis
[4] = substrate: NC(=O)c1cnccn1; test: as above; type: biochemical, Oceanobacillus iheyensis; conditions: Zn2+ active site
[5] = substrate: Cc1cncc(C(N)=O)c1; test: as above; type: biochemical, Oceanobacillus iheyensis; conditions: Zn2+
[6] = substrate: COC(=O)c1cccnc1; test: steady-state kinetics (Km), HPLC; type: biochemical, Oceanobacillus iheyensis; conditions: Zn2+
[7] = substrate: CCOC(=O)c1cccnc1; test: steady-state kinetics (Km), HPLC; type: biochemical, Oceanobacillus iheyensis; conditions: Zn2+
[8] = substrate: NC(=O)c1cccnc1; test: steady-state kinetics (Km), HPLC and GDH-coupled assay; type: biochemical, Oceanobacillus iheyensis; conditions: Zn2+ active site

Ki [1]: 3.4 µM
Molecule: O=Cc1cccnc1 [nicotinaldehyde]

Molecule: nicotinamidase (OiNIC) (Oceanobacillus iheyensis HTE831; E65H)
Km [2]: 0.13 ± 0.01 mM | kcat [2]: 5.63 ± 0.2 s⁻¹ | kcat/Km [2]: 42600 M⁻¹ s⁻¹

Molecule: nicotinamidase (OiNIC) (Oceanobacillus iheyensis HTE831; C133A)
Km ([3]; Zn2+ active site): 0.36 ± 0.02 mM | kcat ([3]; Zn2+ active site): 3.31 ± 0.1 s⁻¹ | kcat/Km ([3]; Zn2+ active site): 9190 M⁻¹ s⁻¹

Molecule: nicotinamidase (OiNIC) (Oceanobacillus iheyensis HTE831; F69W)
Km ([3]; Zn2+ active site cavity): 0.50 ± 0.02 mM | kcat ([3]; Zn2+ active site cavity): 3.94 ± 0.1 s⁻¹ | kcat/Km ([3]; Zn2+ active site cavity): 7900 M⁻¹ s⁻¹

B1: nicotinamidase (OiNIC) (Oceanobacillus iheyensis HTE831) (protein)
chain: T1 sequence (Q8ESQ6 1-183)
Km [4]: 0.81 ± 0.01 mM | kcat [4]: 2.6 ± 0.1 s⁻¹ | kcat/Km [4]: 3200 M⁻¹ s⁻¹ | Km [5]: 0.68 ± 0.02 mM | kcat [5]: 5.1 ± 0.02 s⁻¹ | kcat/Km [5]: 7500 M⁻¹ s⁻¹ | Km [6]: 1.03 ± 0.01 mM | kcat [6]: 0.32 ± 0.02 s⁻¹ | kcat/Km [6]: 310 M⁻¹ s⁻¹ | Km [7]: 1.02 ± 0.01 mM | kcat [7]: 0.1 ± 0.01 s⁻¹ | kcat/Km [7]: 100 M⁻¹ s⁻¹ | Km [8]: 0.26 ± 0.02 mM | kcat [8]: 11.65 ± 0.1 s⁻¹ | kcat/Km [8]: 43500 M⁻¹ s⁻¹
